Patent US20220056125A1

Target: cynomolgus PAR-2 on cells (cynomolgus monkey)
Test: cell-based or functional assay

IC50 mean, calcium flux at SLIGKV EC80, Nomad line: 3.98 nM | IC50 mean, β-arrestin at SLIGKV EC80, Nomad line: 15.2 nM
B1: P24E1102 (antibody, human IgG4 S228P, kappa, V domains shown)
VH: QVQLVQSGAEVKKPGSSVKVSCKASGFSLSSYAISWVRQAPGQGLEWMGVIWGNQNVYYAQKFQGRVTITADESTSTAYMELSSLRSEDTAVYYCARWKGYKDYPFDYWGQGTLVTVSS
VL: EIVLTQSPATLSLSPGERATLSCRASQNVYKWLDWYQQKPGQAPRLLIYNANTRATGIPARFSGSGSGRDFTLTISSLEPEDFAVYYCQQHHSGWTFGGGTKVEIKR
